Experimental data: patent US20230399394A1 (SUNSHINE GUOJIAN PHARMACEUTICAL SHANGHAI, published 2023)

T1: Human IL-33-his (human, UniProt O95760 112-270, biotinylated with EZ-Link NHS-Biotin where used as IL-33-his-biotin)
T1 construct: Used plain (SPR, cell assays) and biotinylated (ELISA); also called IL-33-his-biotin
T1 sequence: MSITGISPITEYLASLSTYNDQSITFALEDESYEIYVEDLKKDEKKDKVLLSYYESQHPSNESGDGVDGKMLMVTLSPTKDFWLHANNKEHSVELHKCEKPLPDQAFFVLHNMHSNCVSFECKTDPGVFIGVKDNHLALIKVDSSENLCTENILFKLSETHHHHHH

T2: Cynomolgus IL-33-his (cynomolgus, UniProt A0A2K5W3I1 112-269, biotinylated in the ELISA of Example 6)
T2 construct: Bought protein; also called cynomolgus IL-33 protein; Cynomolgus monkeys IL-33
T2 sequence: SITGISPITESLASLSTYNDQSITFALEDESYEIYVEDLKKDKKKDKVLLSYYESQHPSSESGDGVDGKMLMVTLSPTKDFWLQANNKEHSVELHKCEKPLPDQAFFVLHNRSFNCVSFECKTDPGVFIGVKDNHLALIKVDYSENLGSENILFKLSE

B1: 874F7-ch (antibody, human IgG4 S228P, kappa, V domains shown)
VH: QVQLKESGPGLVAPSHSLSITCNVSGFSLSKYGVHWIRQIPGRGLDWLGVLRAGGSTGYNSALMSRLSISKDSSKSQVFLKMNDLRTDDTAVYFCVRDHYYYSSYGGFVYWGQGTLVTVSA
VL: DIQMTQSPASQSASLGESVTITCLASQTIGAWLAWYRQQPGKSPQLLIYAATRLADGVPSRFSGSGSGTEFSFKINNLQAEDFVSYYCQQLDSSPYTFGGGTRLEMRT
notes: Chimeric: human IgG4 (S228P) and human kappa constant regions; also called chimeric antibody 874F7-ch
B2: 864F3-ch1 (antibody, human IgG4 S228P, kappa, V domains shown)
VH: QVQLKESGPGLVAPSQSLSITCTVSGFSLTNYGVHWVRLPPGKGLEWLGVIRAGGSSDYNSALMSRLNIRKDNSKSQVFLEMNSLQTADTAMYYCARDHYFSNSYGGSPYWGQGTLVTVSA
VL: DIQMTQSPASQSASLGESVTITCLASQTIATWLAWYQQKPGKSPQLLIYAATRLADGVPSRFSGSGSGTEFSFKISSLQAEDFVIYYCQQLYNTPYTFGGGTKLEIKR
notes: Chimeric: murine variable regions on human IgG4 (S228P) and human kappa constant regions; also called chimeric antibody 864F3-ch1
B3: 871G1 (antibody, V domains shown)
VH: QVHLKESGPGLVAPSQSLSITCNVSGFSLSKYGVHWIRQTPGRGLDWLGVLRAGGTISYNSALMSRLSISEDISKSQVFLKMNDLQTDDSAIYFCARDHYYYSSFGGFASWGQGTLVTVSA
VL: DIQMTQSPASQSASLGESVTITCLASQTIGAWLAWYRQQPGKSPQLLIYAATRLADGVPSRFSGSGSGTKFSFKINNLQAEDFVIYYCQQLNSTPYTFGGGTRLEM
notes: Murine hybridoma antibody; also called murine antibody 871G1

Tests used:
Human IL-33-his [1] = molecular target: T1, Human IL-33-his; assay: ELISA, IL-33-his-biotin on streptavidin plate, anti-human Fc detection
Method: SA protein was diluted to 2 μg/mL to coat ELISA plate at 100 μL/well overnight at 4° C. The plate was washed with PBST (PBS containing 0.05% Tween20) for 3 times, and blocked with 2% BSA prepared in PBS at 200 μL/well, at room temperature for 2 h. After the plate was washed twice with PBST, IL-33-his-biotin protein was diluted to 1 μg/mL with 1% BSA prepared in PBST, and was added to ELISA plate at 100 μL/well. The plate was incubated at room temperature for 1 h, and each monoclonal antibody was diluted with 1% BSA prepared in PBST in a 3-fold gradient. The highest concentration of antibody was 10 μg/mL, and the antibody was diluted for 12 gradients. Each diluted monoclonal antibody was added to ELISA wells with 100 μL/well, and the plate was incubated at room temperature for 1 h. Each sample was added to duplicate wells in parallel. The plate was washed with PBST for 3 times, and HRP-anti human IgG Fc secondary antibody prepared with PBST was diluted at an appropriate ratio, and was added to ELISA wells at 100 μL/well. The plate was incubated at room temperature for 1 h. After washing with PBST for 3 times, TMB developing solution was added at 100 μL/well. When the development met expectations, 2M H₂SO₄ was added to terminate the chromogenic reaction at 70 μL/well. Each reaction solution was shaken uniformly and OD450 nm was read on a microplate reader. The data was analyzed and EC₅₀ was calculated.

Human IL-33-his [2] = molecular target: T1, Human IL-33-his; assay: ELISA as Example 9, IL-33-his-biotin on streptavidin plate
Human IL-33-his [3] = molecular target: T1, Human IL-33-his; assay: competition ELISA, antibody mixed with IL-33-his-biotin, ST2-Fc on plate; competitor ST2-Fc
Method: (§1) ST2-Fc protein was diluted to 1 μg/mL with ELISA coating solution to coat ELISA plate with 100 μL/well. The plate was placed in a wet box at 4° C. for 16 h for coating. The ELISA plate was washed 3 times with PBST, and then was blocked with 2% BSA prepared in PBS at 200 μL/well at room temperature for 2 h. The plate was washed once with PBST, and was patted dry to remove the excess blocking solution. Each monoclonal antibody was diluted with 1% BSA prepared in PBST in a 3-fold gradient. The highest concentration of antibody was 10 μg/mL, and the antibody was diluted for 11 gradients. The diluted antibody was mixed 1:1 with 10 ng/ml IL-33-his-biotin, and then the mixture was added into the ELISA well at 100 μL/well. The plate was incubated at room temperature for 1 h. Each concentration was added to duplicate wells in parallel (maximum final concentration of antibody was […], final concentration of IL-33-his-biotin was 5 ng/mL). Unbound or non-specifically bound primary antibodies were washed out. According to the instructions of the antibody, HRP labeled streptavidin secondary antibody was diluted to an appropriate concentration with antibody diluent solution, then it was added to ELISA plate with 100 μL/well, and was incubated at room temperature for 1 h. The ELISA plate was washed with PBST for 5 times, and was patted dry on absorbent paper to remove excess liquid. TMB developing solution was added with 100 μL/well for development to an appropriate degree. 2M H₂SO₄ was added with 70 μL/well to terminate development, and the absorbance was measured at 450 nm on a multifunctional microplate reader. The data were analyzed.

Human IL-33-his [4] = molecular target: T1, Human IL-33-his; assay: competition ELISA: antibody mixed with IL-33-his-biotin, added to an ST2-Fc-coated plate, HRP-streptavidin; blocked ligand ST2-Fc
Method: as §1, with “According to the instructions of the antibody, HRP labeled streptavidin secondary antibody was diluted to an appropriate concentration with antibody diluent solution, then it was added to ELISA plate with 100 μL/well, and was incubated at room temperature for 1 h. The ELISA plate was washed with PBST for 5 times, and was patted dry on absorbent paper to remove excess liquid. TMB developing solution was added with 100 μL/well for development to an appropriate degree.” left out

Cynomolgus IL-33-his = molecular target: T2, Cynomolgus IL-33-his; assay: indirect ELISA, biotinylated cynomolgus IL-33-his on streptavidin plate
Method: The binding ability of murine antibody to cynomolgus IL-33 was determined by indirect enzyme-linked immunosorbent assay (ELISA). The specific methods were as follows: The plate was pre-coated by biotin-avidin (SA) which was diluted in coating solution (50 mM carbonate coating buffer, pH 9.6) to 2 μg/ml at 4° C. overnight. The plate was blocked with 5% skim milk powder at 37° C. for 2 hours, and stored at −80° C. for later use. Biotinylated recombinant cynomolgus IL-33-his protein was diluted to 1 μg/ml in coating solution (50 mM carbonate coating buffer, pH 9.6) and was added at 100 μl/well to the pre-coated SA plate for 0.5 h at 37° C. After washing the plate with PBST for 3 times, the antibodies to be tested were diluted by gradient with 1% BSA buffer and added into the blocked plate with 100 μl/well, and incubated at 37° C. for 1 hour. The plate was washed with PBST for 3 times, and the HRP-labeled goat anti-mouse IgG was added and placed at 37° C. for 30 min. After washing the plate with PBST for 3 times, the plate was patted on the absorbent paper to remove residual droplets as far as possible. […] OD values were read at 450 nm on the microplate reader to analyze the binding ability of the antibody to the target antigen cynomolgus IL-33-his.

Human IL-33-his [5] = molecular target: T1, Human IL-33-his; assay: cell-based or functional assay
Human IL-33-his [6] = molecular target: T1, Human IL-33-his; assay: indirect ELISA, biotinylated IL-33-his on streptavidin plate
Method: The binding ability of murine antibody to human IL-33 protein was determined by indirect enzyme-linked immunosorbent assay (ELISA). The specific methods were as follows: The plate was pre-coated with biotin-avidin (SA) which was diluted in coating solution (50 mM carbonate coating buffer, pH 9.6) to 2 μg/ml at 4° C. overnight, then the plate was blocked with 5% skim milk powder at 37° C. for 2 hours and stored at −80° C. for later use. Biotinylated recombinant human IL-33-his protein was diluted to 0.5 μg/ml in coating solution (50 mM carbonate coating buffer, pH 9.6) and was added at 100 μl/well to the pre-coated SA plate, 37° C., 0.5 h. After washing the plate with PBST for 3 times, the antibodies to be tested were diluted by gradient with 1% BSA buffer and added into the blocked plate at 100 μl/well, and incubated at 37° C. for 1 hour. The plate was washed with PBST for 3 times, and the HRP-labeled goat anti-mouse IgG was added and placed at 37° C. for 30 min. After washing the plate with PBST for 3 times, the plate was patted on the absorbent paper to remove residual droplets as far as possible. […] OD values were read at 450 nm on the microplate reader to analyze the binding ability of the antibodies to be tested to the target antigen human IL-33-his.

Human IL-33-his [7] = molecular target: T1, Human IL-33-his; assay: competition ELISA, antibody mixed with IL-33-his-biotin, ST2 on plate; competitor ST2
Method: ST2 is the only receptor for IL-33 that has been discovered so far. As a cytokine, IL-33 exerts its physiological function depending on ST2 signaling pathway, and the blocking activity of antibody can reflect the neutralizing activity thereof. The specific method was as follows: the plate was coated with 2 μg/ml ST2 PBS solution at 4° C. overnight; the plate was washed with PBST for 3 times, then the plated was blocked with 5% skim milk powder at 37° C. for 2 hours; the plate was washed with PBST for 3 times for later use. 20 ng/ml IL-33-his-biotin antigen diluted by 1% BSA was mixed with antibodies to be tested diluted by gradient with 1% BSA at 1:1 equal volume and incubated at 37° C. for […]. The mixture was added to a pre-coated ST2 plate and incubated at 37° C. for 1 h. The plate was washed with PBST for 3 times. HRP-labeled streptavidin secondary antibody was added at 1:8000 and incubated at 37° C. for 0.5 hours. After washing the plate with PBST for 3 times, the plate was patted on the absorbent paper to remove residual droplets as far as possible. 100 μl TMB was added to each well, and the plate was placed at room temperature (20±5° C.) for 5 minutes away from light; 50 μl 2M H₂SO₄ terminating solution was added to each well to terminate the substrate reaction. OD values were read at 450 nm on the microplate reader.

Row | Binder | EC50 (Human IL-33-his [1]) [nM] | EC50 (Human IL-33-his [2]) [nM] | IC50 (Human IL-33-his [3]) [nM] | IC50 (read off the curve) (Human IL-33-his [4]) [nM] | EC50 (Cynomolgus IL-33-his) [nM] | IC50 of inhibition of IL-33-induced IL-6 expression in HUVEC cells (Human IL-33-his [5]) [nM] | IC50 of inhibition of IL-33-induced IL-8 expression in HUVEC cells (Human IL-33-his [5]) [nM] | EC50 (Human IL-33-his [6]) [nM] | IC50 (Human IL-33-his [7]) [nM]
1 | B1 | 0.144 | 0.177 | 0.634 |  |  |  |  |  | 
2 | B2 | 0.127 |  | 45.2 | ~6 |  |  |  |  | 
3 | B3 |  |  |  |  | 0.04 | 1.66 | 0.16 | 0.14 | 0.74
